The target of assay [1] is T1, polypeptide GC3pep of human GPC3 (Ala524-Lys563) (human).
T1 construct: Residues Ala524-Lys563 of human GPC3 (NCBI NM_004484.3); coated on the ELISA plate; also called membrane proximal polypeptide GC3pep
T1 peptide: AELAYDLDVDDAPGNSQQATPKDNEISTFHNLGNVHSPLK
Put plainly: ELISA, coated peptide. On the technique in general: ELISA stands for enzyme-linked immunosorbent assay.

A further assay has as its target T2, GPC3 on HepG2 cells (human, UniProt P51654 25-554).
T2 construct: whole, on cells; also called glypican-3
Put plainly: FACS on HepG2 cells.

The target of assay [2] is T3, murine GPC3-His protein (Sino Biological, Cat. No. 50989-M08B) (murine, UniProt Q8CFZ4 25-558).
T3 construct: Bought protein; also called murine GPC3 protein; mouse GPC3-his protein; not shown: His tag
T3 sequence (Q8CFZ4 25-558 limits assumed): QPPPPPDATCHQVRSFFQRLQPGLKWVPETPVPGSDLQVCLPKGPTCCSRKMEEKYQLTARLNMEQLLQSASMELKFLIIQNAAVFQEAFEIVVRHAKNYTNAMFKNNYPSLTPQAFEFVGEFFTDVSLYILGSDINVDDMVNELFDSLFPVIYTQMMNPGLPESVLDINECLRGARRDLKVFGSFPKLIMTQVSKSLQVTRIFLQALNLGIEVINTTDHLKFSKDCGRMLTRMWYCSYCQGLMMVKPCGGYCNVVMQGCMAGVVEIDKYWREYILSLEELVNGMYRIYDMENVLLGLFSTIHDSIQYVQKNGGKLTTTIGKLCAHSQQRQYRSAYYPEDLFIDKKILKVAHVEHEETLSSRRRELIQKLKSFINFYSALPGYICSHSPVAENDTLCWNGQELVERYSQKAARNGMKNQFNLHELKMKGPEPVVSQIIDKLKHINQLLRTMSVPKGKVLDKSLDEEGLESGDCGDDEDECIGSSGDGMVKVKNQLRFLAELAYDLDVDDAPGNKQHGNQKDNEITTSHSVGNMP
The assay can be described thus: ELISA, coated antigen.

“And” between values parts separate entries of the source, which are not always exact repeats. Equal values may be shown once.

B1: F1.2.14 human-murine chimeric antibody (antibody, human IgG1, kappa, V domains shown)
VH: RVQLQQSGAELVKPGASVRMSCKASGYTFTAYSIEWMKQNLGKSLEWIGNFRPYNDDTKYNENFKGRATLTVEKSSATVYLELSRLTSDDSAVYYCARSGPTDYFDYWGQGTTLIVSS
VL: DIQMTQSPASLSASVGETVTITCRASDNIYSYLAWYQQKQGQSPQLLVYNAKTLAEGVPSRFSGSGSVTQFSLKIISLQPEDFGTYYCQHHFGTPRTFGGGTKLEIKR
notes: Chimeric
For the molecule B1, the binding result in assay [1] was “no binding (tested: 100 nM)”.

B2: F1.57.21 human-murine chimeric antibody (antibody, human IgG1, kappa, V domains shown)
VH: QVQLQQSGAELARPGASVKLSCKASGYTFTSYGISWVKQITGQGLEWIGEIYPRSESTYYNEKFKGKATLTADKSSSTAYMELRSLTSEDSAVYFCARDYGNIYSFAYWGQGTLVTVSA
VL: DIQMTQSPASLSASVGETVTITCRTSENIYSYLAWYQQKQGKSPQLLVYNAKTLAEGVPSRFSGSGSGTQFSLKINSLQPEDFGSYYCQHHYGTPLTFGAGTKLELKR
notes: Chimeric
Consider B2, for which the binding result in assay [1] was “no binding (tested: 100 nM)”.

B3: F1.78.24 human-murine chimeric antibody (antibody, human IgG1, kappa, V domains shown)
VH: QVQLQQSGAELVKPGASVKMSCKASGYTFTTYPIEWMKQNHGKSLEWIGNFHPYNDDTNYNVKFKGKATLTVEKSSSTVYLELSRLTSDDSALYYCARRREYYGSFDVWGTGTTVTVSS
VL: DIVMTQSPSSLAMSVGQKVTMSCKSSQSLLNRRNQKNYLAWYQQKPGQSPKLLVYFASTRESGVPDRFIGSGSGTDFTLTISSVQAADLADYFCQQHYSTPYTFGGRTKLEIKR
notes: Chimeric
Turning to B3, in assay [1], the binding result was “no binding (tested: 100 nM)”.

B4: F1.83.6 human-murine chimeric antibody (antibody, human IgG1, kappa, V domains shown)
VH: QVQLQQSGPELVKPGASVKISCKASGYAFSSSWMNWVKQRPGKGLEWIGRIYPGDGDTNYNGRFKGKATLTVDKSSSTAYMQLSSLTSEDSAVYFCARGGVFTMALDHWGQGTTLTVSS
VL: DIQMTQSPSSLSASLGGKVTITCKASQDINKYIAWYQHKPGKGPRLLIHYTSTLQPGIPSRFSGSGSGRDYSFSISNLEPEDIATYYCLQYDNLFTFGGGTKLEIKR
notes: Chimeric
On to B4, for which the binding result in assay [1] is recorded as “no binding (tested: 100 nM)”.

B5: hAb001H1L1b (antibody, human IgG1, V domains shown)
VH: EVQLVESGGGLVQPGGSLRLSCAASGFSFNTNAMNWVRQAPGKGLEWVGRIRSKSNNYATYYADSVKDRFTISRDDSKNSLYLQMNSLKTEDTAVYYCVRDGYYVLFAYWGQGTLVTVSS
VL: DIVMTQTPLSLPVTPGEPASISCRFSQSIVNSNANTYLEWFLQKPGQSPQLLIYKVSNRFSGVPDRFSGSGSGTDFTLKISRVEAEDVGVYYCFQGSHVPFTFGQGTKLEIK
notes: Humanized F2.169.2, H1+L1b
For the molecule B5, in the assay with GPC3 on HepG2 cells, it took 0.918 nM to reach a half-maximal effect (EC50) and the “Max MFI” value came to 4090.

B6: hAb007LH3L1b (antibody, human IgG1, V domains shown)
VH: EVQLVQSGAEVKKPGSSVKVSCKASGYTFTDYEMHWVRQAPGQGLEWMGTIDPETGNTAYNQKFKGRVTLTADKSTSTAYMELSSLRSEDTAVYYCTRPYSLTYWGQGTLVTVSS
VL: DIVMTQTPLSLPVTPGEPASISCRSSQSFVHSNRDTYLQWYLQKPGQSPQLLIYKVSNRFSGVPDRFSGSGSGTDFTLKISRVEAEDVGVYYCFQGSHVPYTFGQGTKLEIK
notes: Humanized F3.81.19
For B6, the binding result in assay [2] was “no binding”.

B7: hAb007LH3L1a (antibody, human IgG1, V domains shown)
VH: EVQLVQSGAEVKKPGSSVKVSCKASGYTFTDYEMHWVRQAPGQGLEWMGTIDPETGNTAYNQKFKGRVTLTADKSTSTAYMELSSLRSEDTAVYYCTRPYSLTYWGQGTLVTVSS
VL: DIVMTQTPLSLPVTPGEPASISCRSSQSFVHSDGDTYLQWYLQKPGQSPQLLIYKVSNRFSGVPDRFSGSGSGTDFTLKISRVEAEDVGVYYCFQGSHVPYTFGQGTKLEIK
notes: Humanized F3.81.19
With B7, in assay [2], the binding result is given as “no binding”.

B8: hAb007LH3L1 (antibody, human IgG1, V domains shown)
VH: EVQLVQSGAEVKKPGSSVKVSCKASGYTFTDYEMHWVRQAPGQGLEWMGTIDPETGNTAYNQKFKGRVTLTADKSTSTAYMELSSLRSEDTAVYYCTRPYSLTYWGQGTLVTVSS
VL: DIVMTQTPLSLPVTPGEPASISCRSSQSFVHSNGDTYLQWYLQKPGQSPQLLIYKVSNRFSGVPDRFSGSGSGTDFTLKISRVEAEDVGVYYCFQGSHVPYTFGQGTKLEIK
notes: Humanized F3.81.19
Regarding B8, the binding result in assay [2] is “no binding”.

B9: GC33 IgG (antibody, V domains shown)
VH: QVQLVQSGAEVKKPGASVKVSCKASGYTFTDYEMHWVRQAPGQGLEWMGALDPKTGDTAYSQKFKGRVTLTADKSTSTAYMELSSLTSEDTAVYYCTRFYSYTYWGQGTLVTVSS
VL: DVVMTQSPLSLPVTPGEPASISCRSSQSLVHSNRNTYLHWYLQKPGQSPQLLIYKVSNRFSGVPDRFSGSGSGTDFTLKISRVEAEDVGVYYCSQNTHVPPTFGQGTKLEIKR
notes: Complete IgG form of the control antibody GC33; also called codrituzumab
B9: the concentration giving a half-maximal response (EC50) (as a rule, the concentration at which the effect is half-maximal) with GPC3 on HepG2 cells was 1.56 nM and 1.21 nM.

B10: F1.110.24 human-murine chimeric antibody (antibody, human IgG1, kappa, V domains shown)
VH: EVKLVESGGGLVQPGGSLKLSCAASGFTFSDFYMYWVRQTPEKRLEWVAFISNGGGSTYYPDTVKGRFTISRDNVKNTLYLQMSRLKSEDTAMYYCARPDTSWFAYWGQGSLVTVSA
VL: DIQMTQTTSSLSASLGDRVTISCRASQDIDNYLNWYQQKPDGTVKVLISYTSRLHSGVPSRFSGSGSGTDYSLTISNLEQEDIATYFCQQGNTLPWTFGGGTKLEIKR
notes: Chimeric
As for B10, the binding result in assay [1] is recorded as “no binding (tested: 100 nM)”.

B11: F1.73.9 human-murine chimeric antibody (antibody, human IgG1, kappa, V domains shown)
VH: QVQLKQSGAELVRPGASVKLSCKASGYTFTDYYINWVKQRPGQGLEWIARIYPGSGNTYYNEKFKGKATLTAEKSSSTAYMQFSSLTSEDSAVYFCACSTYYTMDYWGQGTSVTVSS
VL: QIVLTQSPAIMSASLGERVTMTCTASSGVSSSYLHWYQQKPGSSPKLWIYTTSNLASGVPARFSGSGSGTSYSLTISSMEAEDAATYYCHQYHRSPYTFGGGTKLEIKR
notes: Chimeric
Take B11: in assay [1], the binding result was “no binding (tested: 100 nM)”.

B12: F1.21.8 human-murine chimeric antibody (antibody, human IgG1, kappa, V domains shown)
VH: EVQLQQSGPELVKPGASVKISCKTSGFLFTGHYMHWVKSSHGNILDWIGYIYPYNAISFYNQKFKGKATLTVDKSSNTAYMELRSLTSEDSAVYYCARGDYGNYVTAYWGQGTLVTVSA
VL: DVLMTQTPLSLPVSLGDQASISCRSSQSIVHSSGNTYLEWYLQKPGQSPKLLIYKVSNRFSGVPDRFSGSGSGTDFTLKISRVEAEDLGVYYCFQGSHLPWTFGGGTKLDIKR
notes: Chimeric
Regarding B12, in assay [1], the binding result was “no binding (tested: 100 nM)”.

B13: F1.111.11 human-murine chimeric antibody (antibody, human IgG1, kappa, V domains shown)
VH: EVQLQQSGPELVKPGASVKISCKASGYTFTDYYMNWVKQSHGKSLEWIGDIYPNNGDTTYNQRFKGKATLTVDKSSSTAYMELRSLASEDSAVYYCACPYNNPFGYWGQGTLVTVSA
VL: DVVMTQTPLSLPVSLGDQASISCRSSQSLVHSNGNTYLHWYLQKPGQSPKLLIYKVSNRFSGVPDRFSGSGSGTDFTLKISRVEAEDLGVYFCSQSTHVPWTFGGGTKLEIKR
notes: Chimeric
Consider B13, for which the binding result in assay [1] was “no binding (tested: 100 nM)”.

B14: F1.92.17 human-murine chimeric antibody (antibody, human IgG1, kappa, V domains shown)
VH: EVQLQQSGPELVKPGASVKMSCKASGYTFTDYNMHWVRQSHGKSLEWIGYINPNNGDTIYNQNFKGKATLTVNKSSSTAYMELRSLTSEDSAVYYCSRTITYYYSMDYWGPGTSVTVSS
VL: QIVLTQSPALMSASPGEKVTMTCSASSSVSYMYWYQQKPRSSPKPWIYLTSNLASGVPARFSGSGSGTSYSLTISSMEAEDAATYYCQQWSSNPLTFGAGTKLELKR
notes: Chimeric
B14: in assay [1], the binding result is reported as “no binding (tested: 100 nM)”.

B15: F1.42.8 human-murine chimeric antibody (antibody, human IgG1, kappa, V domains shown)
VH: HVQLQQPGAELVKPGASVKLSCKASGYTFTSYWMHWVRQRPGQGLEWIEMIHPNSGSTNYNEKFKSKATLTVDKSSSTAYMQLSSLTSEDSAVYYCARGNYNSSLYAMDYWGQGTSVTVSS
VL: DIQMTQTTSSLSASLGDRVTISCSASQGISNYLNWYQQKPDGTVKLLIYYASNLHSGVPSRFSGSGSGTAYSLTISNLEPEDIATYYCQQYSILPYTFGGGTKLEIKR
notes: Chimeric
As to B15, in assay [1], the binding result is “no binding (tested: 100 nM)”.

The values above are taken from patent US20260116991A1 (HAINAN SIMCERE ZAIMING PHARMACEUTICAL, published 2026).
